# Assay results reported in the DeepSol protein solubility set.
# Test: soluble on expression in E. coli; label from the status in PepcDB or PDB records
row,Sequence,soluble on expression in E. coli
1,MGSDKIHHHHHHMSLFNLSLVTFEIDHEDCWSKLTSSFPVQVKTIFAKPSKGKDYILGMDEVKTYNRRVFKDFLKSFKKEKSIYEIIQILELDSRRGIYRILFKERYENMIMSIIENYMTLYIKDLIKEGNERLLLIMPSSDVTMLKRDLESIGKIHYFNAKLVNFNDFVPTFFDFSEQERNAVLHAIRLGYYEYPRRINLEELGKIMGISKPTLEEYLRKAEKKIMSKIFREFYQQDLLFHSPDY,not soluble
2,MGSDKIHHHHHHMSLNLRDLEYFYQLSKLRSFTNVAKHFRVSQPTISYAIKRLETYYDCDLFYKDSSHQVVDLTPEGELLAMRTNEILSELNHTKKAIHRSSMKDFKVGFPPIISSYLLSKQDNLNFFNALHMIYGGSNELLSLLLNEEIDSSLLGSLEKIKHPQLEIEELFQKEFFIIMSDSHPLANEKELGFKDLLNEDFILLGEHNIHFNAFNRLNEKYNQSANVVLKLDDAHTIKELVRKNLGISLMADIRLSEDFKNLVKVPFIEEDKQFFHINYAYQKNSILSESEKNFLEILKTLK,not soluble
3,MGSDKIHHHHHHMSLSAEQIVEYRAFAEQLADAAAAAIAPYFRASLDVEDKGGRLYDPVTVADKAAEDAMRELIQARYPEHGILGEEAGIAVGSSPLTWVLDPIDGTRAFITGLPLWGTLIALNDGARPVLGVMNQPFTGERFVGTPAGAWRSGTPLKTRACADLSAATLMCTTPDMFDTAERKAAFEAVAGKARLMRYGGDCYAYCMLASGFVDVIVEASLQPYDVQALMPIIEGAGGVITAWDGSSAQDGGCVVACGDPVLHAQVLEMLRHAM,not soluble
4,MGSDKIHHHHHHMSMVSSGNYAEVEKVLTEYPYIAELADHLRDQKMKVIENLDSYVSLTIKNVERLGGHAYLAKDKEEARKIAGDLVGDNKTVVFSKTNVAYEIGLREYLESKHNEVWETDLGEYLIQISKGWPTHIVAPALGMTREDAAKAVKKIDPSINENSTIEDVVAAVRKFLMSKYVKADVGITGANAVAADSGAIALVENEGNIRIDTVMPQTHISITGIDKIVPTLRDALDEVMVQSAYAGLFPPTYINVTAGPSSTADIELRRVSPATGPKNFHLILLDDGRMDASKDEGLKEALLCIKCGRCYFSCPIYRVLGKEWVSTKSPYNGPTGVMWNYITNKDPWPASYCVHSGGCKEVCPMRINIPEVIKYIKYLGSKSL,not soluble
5,MGSDKIHHHHHHMSNDIDLIKRLGPSAMDQIMLYLAFSAMRTSGHRHGAFLDAAATAAKCAIYMTYLEQGQNLRMTGHLHHLEPKRVKIIVEEVRQALMEGKLLKTLGSQEPRYLIQFPYVWMEQYPWIPGRSRIPGTSLTSEEKRQIEHKLPSNLPDAQLVTSFEFLELIEFLHKRSQEDLPPEHRMELSEALAEHIKRRLLYSGTVTRIDSPWGMPFYALTRPFYAPADDQERTYIMVEDTARYFRMMKDWAEKRPNAMRALEELDVPPERWDEAMQELDEIIRTWADKYHQVGGIPMILQMVFGRKED,not soluble
6,MGSDKIHHHHHHMSNGGRLVSQLEAEGSTHLTLPIHKKSLSSLWQIRPLRQLIEEHQPDIVHVRSRVPAWLTHFALRKIPANKRPHLISTVHGFYSVNRYSAIMTQAEKVIAVSDSVVKYITDHYKNCPPQDIVRIYRGIDPAAFPHNYQPSAQWFNQVFNDFPELENKFLLCLPGRITRLKGHESLIELMQQLHSQYPQLHAVIVGGADVKKQAYLSELQNTIQSKGLADKITFVGHRSDIREWLAFSDIVLSLSNQAETFGRTALEALSVGTPVIGWNRGGVAEILSHVYPQGLVEAENEKALLETVKHHIEQPQTVAPVTMFSLKDMCDQTLELYQSVLN,not soluble
7,MGSDKIHHHHHHMSNSSIKSKTALLRNGETQKGNGYPEANDYSARILETMQTGVVFFNTEQIISGINNLACEDLQIPRDPSGHKITDIISIIHQEKDIFPELIARLKSSETDMEKLPIDTLIRSLETKVQFFASGCIMQLETGRYLLAFRNTMDEVTHEHLLSMILARTKIFPWFFDLKRNKMLIDAHWFSYLGIPAGDCEITIEKFFSRVHPNERDMLADALQKQLSEKEIPDSFSYRLQRGDGSWEWFSEQSMYLSKTNDGSPYRIVGVCHSIQEHKNTEDKLRAARNKAQESDRLKSAFLANMSHEIRTPLNAIVGFSNLIAGGIVDLDTEEARDYSALISKNCNYLLTLVSDVLDLSCIESDTMTFKFTVYPLTRLLTEIYQKYENRIPQEVQFNLLLPTDNVEIETDAVRLRQVIEHLLDNAAKFTVKGHIDIGYALSDHGEKIYVFVADTGCGIPSDQYKKVFERFYKINSFVQGAGLGLSVCKTIVEGLGGTINVYSQLKEGSRFSVILPLNRLHK,not soluble
8,MGSDKIHHHHHHMSNVTAEQKKEVKGRGFLPSRDGEHFAARIITVNGVINASQAKKIAEAAEKFGNGQLAFTTRLTVELPGVKFEDIEALSEFIASENLITGGTGSRVRPVVACKGTVCVHGLADTQALAAEIHEEFYKNWYDVKLPHKFKIGVGGCPNNCIKPDLNDLGIVGQRVPDYDSELCVGCKKCAVVEVCPVKAAKLTDKGKLEIDSNLCNNCGKCIESCNFDSIEEKESGYKVYIGGKWGKSVRPGTQIDRLFSKEELMTLIEKAILLFREQGNTGERFGITIDRIGADKFIEMLLSDEVLERKEEILEALLHLTGGAVC,not soluble
9,MGSDKIHHHHHHMSPRCSTCGMGQLCLPVGMNQQDLQKMDTLVQERVRVHKGETLYRMGDPLTAVYAIRFGTLKTHVTTEDGRSQITGFHLPGEVVGLDGLGEMQHASDATALEDTEVCVVRLSDLQSLSMDLPSLQQQFLRLMGKEISNDQLMLVTLGSMRAEERLAAFLINLSERLSARGYSSTEFVMRMSREEIGSYLGLKLETVSRLFSRFAEAGLIQIRQRHVKLVDMAGIKQVYSRSC,not soluble
10,MGSDKIHHHHHHMSRDAPIKADKDYSQILKEEFPKIDSLAQNDCNSALDQLLVLEKKTRQASDLASSKEVLAKIVDLLASRNKWDDLNEQLTLLSKKHGQLKLSIQYMIQKVMEYLKSSKSLDLNTRISVIETIRVVTENKIFVEVERARVTKDLVEIKKEEGKIDEAADILCELQVETYGSMEMSEKIQFILEQMELSILKGDYSQATVLSRKILKKTFKNPKYESLKLEYYNLLVKISLHKREYLEVAQYLQEIYQTDAIKSDEAKWKPVLSHIVYFLVLSPYGNLQNDLIHKIQNDNNLKKLESQESLVKLFTTNELMRWPIVQKTYEPVLNEDDLAFGGEANKHHWEDLQKRVIEHNLRVISEYYSRITLLRLNELLDLTESQTETYISDLVNQGIIYAKVNRPAKIVNFEKPKNSSQLLNEWSHNVDELLEHIETIGHLITKEEIMHGLQAK,not soluble
11,MGSDKIHHHHHHMSRNSPLEISRTLVAALSTQMFRYYEDRIPQDASVLVVSNHRSFMDALILMAALSSPIRFACHHYMGQVPVMREIVTGQLGCFPLEETQNRQQSFFSQSQLLLQSKQMVGVFPEGTAPMVKSTQPNQVGEFQRGFAHLALRADVQDLAILPIAIASLEEVNTNGFPLRLLSVFDPSEPLFNQAGWHPLVIYRRVAVLIGRPYWITPQHQKKYHGKQARTVVAELTEHCHGEISHLLRQGCY,not soluble
12,MGSDKIHHHHHHMSRTADSLPSTRQRRKEARPQELLDAALDLFVEKGFAATRSEEVAARAGVSKGTLYLYYPSKEELLKAVIRENISQEIAEGEDIVRGFDGPTAELLAHLMAEWWRRIGETRASGICKLIISEVRNFPDIAQFYLDEVVLPAERMIGGVVQRGIDRGEFRPVAVDDVVHALMAPMLFLMLHKHSMGACPNLDRRLDAPRVVAMQVDLVLNGLVPRTAPRGGPRKAKA,not soluble
13,MGSDKIHHHHHHMSSEQIIASLKELVATPENPGKVLTDPADLDNYGKDWTKIYPPKPLAIVLPKTTEQVQALVKFANENQVALVPSGGRTGLSAGAVAANGEVVVAFDNMNQILDFNASDRTVRCQAGVVTEQLQTFAEENGLYYPVDFASAGSSQLGGNLSTNAGGIKVIRWGMSRDWVAGLKVVTGKGDVLDLNKDLAKNNTGYDLRHLFIGAEGTLGFITEATMKLTRKPDDLTVLVLGLNDLTNTMDVLQAFQKKLDLTAYEFFSHQAMGHVLAHGQVQAPFETEAPYYALLEFEAVSDQVMDDAMALFEQCVEEGWVLDGVISQSETQAQNLWQLRERISESIAPRIPYKNDISVVVSKVPGFLQEIDNVVTEHYPDFEIIWFGHIGDGNLHLNILKPEDMAKEDFFEKCQQVNKWVFEIVERYQGSVSAEHGVGMTKKPYLQYTRSEAEIAYLRGIKQVFDPNNIMNPGKIFD,not soluble
